This passage reports β-gal activity Miller units (yeast two-hybrid; interact with β: +), β-gal activity Miller units (yeast two-hybrid; interact with β: -) and IC50 results from patent US20040132121A1, “Method of identifying antibacterial compounds” (priority 2000, published 2004).

Experiment [1] concerns the target E. coli β fused to the B42 transcriptional activation domain (plasmid pB42ADβ) (Escherichia coli) (UniProt P0A988).
The target of experiment [2] is Escherichia coli β subunit of DNA Polymerase III (β protein) (Escherichia coli) (UniProt P0A988).

Sequence of LexA-PolB (779-783) fusion (plasmid pLexAPolB(779-783)) (P0A7C2 other isoform, or with tags, fused parts or gaps limits assumed): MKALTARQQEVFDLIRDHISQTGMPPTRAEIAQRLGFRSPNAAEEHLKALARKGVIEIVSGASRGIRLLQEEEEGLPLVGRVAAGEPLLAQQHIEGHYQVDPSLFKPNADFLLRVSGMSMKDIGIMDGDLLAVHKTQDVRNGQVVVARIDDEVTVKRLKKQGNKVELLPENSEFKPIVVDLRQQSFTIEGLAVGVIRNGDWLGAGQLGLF
Sequence of LexA-MutS (802-818) fusion (plasmid pLexAMutS(802-818)) (P0A7C2 other isoform, or with tags, fused parts or gaps): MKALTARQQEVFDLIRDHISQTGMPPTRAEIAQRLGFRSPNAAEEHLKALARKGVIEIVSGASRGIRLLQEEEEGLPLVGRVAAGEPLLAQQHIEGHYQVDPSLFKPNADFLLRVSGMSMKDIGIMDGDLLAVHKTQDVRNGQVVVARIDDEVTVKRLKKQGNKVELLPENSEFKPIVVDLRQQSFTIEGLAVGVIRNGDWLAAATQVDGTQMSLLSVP
Sequence of LexA-DinB (307-317) fusion (plasmid pLexADinB (307-317)) (P0A7C2 other isoform, or with tags, fused parts or gaps): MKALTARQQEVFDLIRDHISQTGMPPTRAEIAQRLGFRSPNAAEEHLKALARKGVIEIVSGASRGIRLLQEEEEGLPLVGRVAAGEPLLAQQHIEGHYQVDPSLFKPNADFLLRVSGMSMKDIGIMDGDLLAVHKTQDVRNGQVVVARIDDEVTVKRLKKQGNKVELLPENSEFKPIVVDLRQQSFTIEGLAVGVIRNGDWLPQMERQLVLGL

In turn, “LexA-UmuC (351-365) fusion (plasmid pLexAUmuC(351-365)) (from UniProt P0A7C2 1-202)” returned a β-gal activity Miller units (yeast two-hybrid; interact with β: +) in experiment [1] of 94.8 Miller units.

Consider “LexA-DnaE (542-991) fusion (plasmid pLexADnaE (542-991)) (from UniProt P0A7C2 1-202; P10443 542-991)”, for which, in experiment [1], the β-gal activity Miller units (yeast two-hybrid; interact with β: +) was found to be 60.1 Miller units.

The substance “LexA-PolB (779-783) fusion (plasmid pLexAPolB(779-783)) (from UniProt P0A7C2 1-202)” returned a β-gal activity Miller units (yeast two-hybrid; interact with β: +) in experiment [1] of 69.6 Miller units.

Consider “LexA-DnaE (908-931) fusion (plasmid pLexADnaE (908-931)) (from UniProt P0A7C2 1-202; P10443 908-931)”, for which the β-gal activity Miller units (yeast two-hybrid; interact with β: +) in experiment [1] came out at 32.3 Miller units.

In turn, “LexA-DnaE (736-991) fusion (from UniProt P0A7C2 1-202; P10443 736-991)” showed a β-gal activity Miller units (yeast two-hybrid; interact with β: +) in experiment [1] of 135 Miller units.

With “LexA-DinB (307-317) fusion (plasmid pLexADinB (307-317)) (from UniProt P0A7C2 1-202)”, the β-gal activity Miller units (yeast two-hybrid; interact with β: +) in experiment [1] is 75.1 Miller units.

The substance “LexA-DnaE (896-919) fusion (plasmid pLexADnaE (896-919)) (from UniProt P0A7C2 1-202; P10443 896-919)” showed a β-gal activity Miller units (yeast two-hybrid; interact with β: -) in experiment [1] of 0.1 Miller units.

pLexA displayed a β-gal activity Miller units (yeast two-hybrid; interact with β: -) in experiment [1] of 1.5 Miller units.

Take pep18 Ac-DLF-NH2 (peptide): in experiment [2], the IC50 was 135 µM.

Substance “LexA-MutS (802-818) fusion (plasmid pLexAMutS(802-818)) (from UniProt P0A7C2 1-202)” displayed a β-gal activity Miller units (yeast two-hybrid; interact with β: +) in experiment [1] of 43.8 Miller units.

Substance “LexA-DnaE (542-735) fusion (from UniProt P0A7C2 1-202; P10443 542-735)” returned a β-gal activity Miller units (yeast two-hybrid; interact with β: -) in experiment [1] of 1.1 Miller units.
